Results taken from publication PMC11381523 (Nature Communications, 2024).

Biological target: Rpb2 subunit of Komagataella phaffii RNA polymerase II (TAP-tagged) (Komagataella phaffii, UniProt F2QTX9 1-1227)
Assay: cryo-EM structure

binding result: binds
B1: Komagataella phaffii Rai1 (E213A/D215A), kpRai1(2A) (enzyme)
chain: MSKEKILPLAARSKKAMLRQPKQVAYFSRDLNYKTHPDRSNLSYYYLPDGDIDNSIDLSVGSKHFLLGDSVELSKLDPILLALKEIEKESGAKTKDRIITWRGIMRKLLTLPYDSEEDFVLDVVSFDGQLFIQFNVPYLKSKDVQKQGDTEFHKKLQFSGYKFEKMATLPKPWPECTRKEIDSRAKSKCNNIEQYGAIVRTGISRIKILIGGAVACTADYYDENDPLSRYIELKTTRTINQYKDMIAFEKKLFRTWAQCFLLGIPKIIYGFRDDNCILRTVEEFSTNDIPLMVKNNPLNEQPKKENCYMSSINFYGAVVEWLNESVKDDQVWKLSYAKRNRQYLVLKEVTDENEKQQIVDSAIPAWFKEWRSELRNSEGNI
